Experimental data taken from the supplement of paper PMC9170038.

Tested on: MS2 coat protein
Assay: apparent KD of MS2 coat protein; designed switch direction (-1 OFF switch, 1 ON switch): -1; higher = weaker reporter binding
Method in brief: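 The buffer was Tris-HCl pH 7.5 with KCl, MgCl2, BSA, DTT, tRNA and Tween-20. In it, SNAP-549-labelled MS2 coat protein was titrated in doubling steps from 0.7 or 1.5 nM to 3 µM over chip-bound RNA switches transcribed by stalled E. coli RNA polymerase on Illumina chips. Apparent KD is the per-design median over clusters of curve fits to normalised fluorescence.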

[1] = input ligand: microRNA oligo, concentration not stated
[2] = Eterna round: R95, input ligand: FMN 200 uM
[3] = Eterna round: R95, input ligand: microRNA oligo, concentration not stated
[4] = Eterna round: R95, input ligand: none

Row | Sequence | apparent KD of MS2 coat protein (input ligand: FMN 200 uM) [µM] | apparent KD of MS2 coat protein [1] [µM] | apparent KD of MS2 coat protein (input ligand: none) [µM] | apparent KD of MS2 coat protein [2] [µM] | apparent KD of MS2 coat protein [3] [µM] | apparent KD of MS2 coat protein [4] [µM]
1 | GGGAGGAGUGUAGGAUAUCCGACAAUCCUGUCAGGAGAAGGGCACCCUACUUGAGGAUCACCCAAGUCUCCGGGUGCUCAAGAA [Mutated MS2 EX1.15] (Eterna round: R96, puzzle: Exclusion NG 1) | 0.00933 | 0.00822 | 0.0132 | – | – | –
2 | UGGUCACAUGAGGAUCACCCAUGUCAGGAUAUCGUCACUGGAGCUGCGGCUCCAGUGACGAGAAGGGACAUAAU [E1/6-A3] (Eterna round: R97, puzzle: Exclusion 1) | 0.162 | – | 0.253 | – | – | –
3 | AACGCGUGAGGAUAUUGAGGUCUAAAAUGGUAACAUGACCACGAGAAGGCACAUGAGGAUCACCCAUGUUCCCG [Eternabot (L2) Solution 49] (Eterna round: R97, puzzle: Exclusion 4) | 0.0851 | – | 0.0178 | – | – | –
4 | GCGAAAGAAAACAGGUGAAACAUGAGGAUCACCCAUGUCCUCAUUUGCUCGUCUUAUAAGCUAUGCGAAAGCAUAGC [Mat - Sensor v3 - turn-off var 1 - Eli Mod - D52] (puzzle: Sensor v3, turn-off variant 1) | – | – | – | 0.173 | 0.391 | 0.218
5 | CUUAGACAUGAGGAUCACCCAUGUGAGGAUAUGAUGCAGCAGUGGUCUACGCUGUGCAUCAGAAGGCACAUAUG [mod of disincluded 3 v.3 (my top score 87 - 28% A's)] (puzzle: Exclusion 1) | – | – | – | – | 0.108 | –
6 | AUAGGCUGUUUUGUUCGUCACAUGAGGAUCACCCAUGUCUCGAGACUGUGCUUACGUUGCGUGUAUAGUCCGGGUAU [Eternabot (L1) Solution 5] (Eterna round: R97, puzzle: Sensor, turn-off variant 1) | 0.0341 | – | 0.0363 | – | – | –
7 | UUUAAUUUUUUUUUUUUACAAGCUUUUUGCUCGUCUUAUACAUGAGGAUCACCCAUGUGAAUGAGGGAUAAAUUAUC [JMF 39] (puzzle: Sensor v3, turn-off variant 2) | – | – | – | 0.0135 | 0.0143 | 0.0119
8 | GCAGGCGUCUAGGCUCGUCUUAUUUUGAGAAGAUUGAUAACAUGAGGAUCACCCAUGUUUGUGGGAGAGUUGGAGUG [JR_SV3TOV2_Sub014] (puzzle: Sensor v3, turn-off variant 2) | – | – | – | 0.159 | 0.258 | 0.209
9 | AGCAACGUACAGGAUAUACUUCACCUUCUAGAAGUAGAAGGGUGCACAUGAGGAUCACCCAUGUUAGCGAGCAG [Eternabot (Original) Solution 25] (Eterna round: R97, puzzle: Exclusion 6) | 0.0184 | – | 0.0159 | – | – | –
10 | GCCGUGUCAGGAUAUCGGCGGCUAUAAGUGUACGUACCUUUCGAGAAGGGACAUGAGGAUCACCCAUGUAAAUC [Eternabot (L1) Solution 25] (Eterna round: R97, puzzle: Exclusion 4) | 0.0299 | – | 0.0289 | – | – | –
11 | CAAAAGCUAGGAUAUACAUGAGGAUCACCCAUGUCGCACUCUAGACACGCCAUACAUAGUAGAAGGAGCAAUCU [EX3 B.18] (Eterna round: R97, puzzle: Exclusion 3) | 0.0217 | – | 0.0179 | – | – | –
12 | CUUCGACAUGAGGAUCACCCAUGUCAGGAUAUUGUGUAUCGGGUUUUUUACGGAUAGGCAAGAAGGGAUGUGUG [LRO-Excl1-06] (puzzle: Exclusion 1) | – | – | – | – | 0.0327 | –
13 | GGCGAAGUAGGAUAUACAUGAGGAUCACCCAUGUAACCAGAUGGCGUAGGUCUUCUAUGUAGAAGGGCUACGCC [jl-ex3-4.34 ViennaUCT mod] (Eterna round: R97, puzzle: Exclusion 3) | 0.0169 | – | 0.017 | – | – | –
14 | GUGUACAGAGGAUAUACUUGAAUCUAGCGAAGCUAGGUUUGACAUGAGGAUCACCCAUGUAGAAGGCUGUACAC [Dot plot directed A v1] (puzzle: Exclusion 2) | – | – | – | – | 0.0137 | –
15 | GUCAGCUCGUGAGGAUAUGCACAUGAGGAUCACCCAUGUAAGAUCAAGCUGCUUCGGCAGCAAGUGCAGAAGGUACGAGCUGAU [ENG2/9-C3] (Eterna round: R96, puzzle: Exclusion NG 2) | 0.257 | 0.225 | 0.286 | – | – | –
16 | GGCGGACAUGAGGAUCACCCAUGUCAGGAUAUGGUGCGAUCGUCGAUAGACGAUAGCACCAGAAGGGACACGCC [Mat - Exclusion 1 - Eli Mod - D1] (Eterna round: R97, puzzle: Exclusion 1) | 0.0222 | – | 0.0198 | – | – | –
17 | GUAGAGUAAGGAUAUGUAGAAUAGGAUAGAAUGGUUAGAAUACAGAAGGUACAUGAGGAUCACCCAUGUAAUGU [Excluse me!!!! 3 - Jieux - Exclusion 4] (puzzle: Exclusion 4) | – | – | – | – | 0.017 | –

Row | Sequence | apparent KD of MS2 coat protein (input ligand: FMN 200 uM) [µM] | apparent KD of MS2 coat protein [1] [µM] | apparent KD of MS2 coat protein (input ligand: none) [µM] | apparent KD of MS2 coat protein [2] [µM] | apparent KD of MS2 coat protein [3] [µM] | apparent KD of MS2 coat protein [4] [µM]
18 | AGUGCUAACACGAAAGUGUUAGUACAAUAAGCUUGUGAAACAUGAGGAUCACCCAUGUCCUCAUAAGCUCGUCUUAU [salish99_TOv2_r3_014] (puzzle: Sensor v3, turn-off variant 2) | – | – | – | 0.0178 | 0.651 | 0.0177
19 | GGUCAAGGACAGAUCCGCGCUGCCCUUGACCGCUCAUUUACAUGAGGAUCACCCAUGUUUUUUGCUUGUCUUGUUAC [Erbete] (puzzle: Sensor v3, turn-off variant 2) | – | – | – | 0.0162 | 0.094 | 0.0181
20 | UUUACAAGCUAUUGAUCCCACAUGAGGAUCACCCAUGUUGCUGCCGUGAGGUAGCUUUUAACAAUUGCUCGUCUUAU [JL TOV1 3.38] (Eterna round: R97, puzzle: Sensor, turn-off variant 1) | 0.424 | – | 0.57 | – | – | –
21 | CACAUGGGAACAUGAGGAUCACCCAUGUGAUAGAAAGGUAUGGAGGAUAUCAUACCAUCGCCGUGUGAGAAGGUCAGGCCAACA [Eternabot solution 46] (Eterna round: R96, puzzle: Exclusion NG 3) | 0.409 | 0.151 | 0.388 | – | – | –
22 | GACUAGGGAGGAUAUAUUUGCAGUGUACCUCGGGUGAUCGCACUUGAGGAUCACCCAAGUAGAAGGCUCGAGGG [EX2 #26] (Eterna round: R97, puzzle: Exclusion 2) | 0.0419 | – | 0.0465 | – | – | –
23 | GUUUGCAGACGGAGAUCCUACAUGAGGAUCACCCAUGUCUCACUAGCUUUUUGCUCGUCUUAUCCUCCUCUGUUCUC [Elimod 27 - Jieux - Sensor, turn-off variant 1] (Eterna round: R97, puzzle: Sensor, turn-off variant 1) | 0.26 | – | 0.303 | – | – | –
24 | AUCAGCUCGUGAGGAUAUAUAUUAACAUGAGGAUCACCCAUGUAAGAUCAGCUUCGGCAGUUAAUAUAGAAGGCACGAGCUGAU [ENG2/14-A2] (Eterna round: R96, puzzle: Exclusion NG 2) | 0.151 | 0.0988 | 0.114 | – | – | –
25 | UAUAUAUAGUAAGGAUAUGUAUAUUUUUUAUAAACAGAAGGUACUGACAUGAGGAUCACCCAUGUUUUAGUGUGGGCAUGUAGA [JMF's solution 53] (Eterna round: R96, puzzle: Exclusion NG 1) | – | 0.0638 | – | – | – | –
26 | AGAGUGCUGCGAGGAUAUACAUGAGGAUCACCCAUGUAAUCGUGUGAGGCAAAGCCUCACACGAUGUAGAAGGCGCAGUACUCA [Mat - Exclusion NG 2 - Mod of JL - D24] (Eterna round: R96, puzzle: Exclusion NG 2) | 0.0131 | 0.0128 | 0.0167 | – | – | –
27 | UAUAUUGGAGGAUAUCUCUCAGUGAACAUGAGGAUCACCCAUGUUGGUGAACGACGGCACAGAGAAGGUCAACGCA [Eternabot (L2) Solution 61] (Eterna round: R97, puzzle: Exclusion 5) | 0.314 | – | 0.499 | – | – | –
28 | AGGACGAUAGGAUAUACAUGAGGAUCACCCAUGUGCAUAAGAAUAUGCCAAUCCACGCGUAGAAGGAUCAUAAU [Eternabot (Original) Solution 11] (Eterna round: R97, puzzle: Exclusion 3) | 0.0654 | – | 0.0281 | – | – | –
29 | UUAGAAUUGUUAGGAUAUUAAUUAUUGUUUAGUAUGAUCUACAUGAGGAUCACCCAUGUUAAAUAUAAGAAGGAACGUUAGAUU [JR_ExcNG2_Sub095] (Eterna round: R96, puzzle: Exclusion NG 2) | 0.0437 | 0.0356 | 0.0513 | – | – | –
30 | GUUUCACAUGAGGAUCACCCAUGUGAGGAUAUAAAUUUGUUAACCGUAGUUAAUAGAUUUAGAAGGCGCGUGAU [JR_Exc1_Sub001] (Eterna round: R97, puzzle: Exclusion 1) | 0.0682 | – | 0.0631 | – | – | –
31 | GAAAAGGUAGGAUAUACGAAAAAAGAGGGUAGAAAAAAAACACAUGAGGAUCACCCAUGUAGAAGGACCAAAAG [salish99_ex2_r3_025] (puzzle: Exclusion 2) | – | – | – | 0.0602 | 0.0321 | 0.0249
32 | UAAUGCAAGCAAAGAUUCUACAUGAGGAUCACCCAUGUGCUCGUCUUAUAAAGUACUAUCACGAAAGUGAUAGUACA [Mat - Sensor v3 - turn-off var 1 - Eli Mod - D96] (puzzle: Sensor v3, turn-off variant 1) | – | – | – | 0.0257 | 0.0757 | 0.0271
33 | AGCGCCAUCGUGAGAUGGCGUAUUACAUGAGGAUCACCCAUGUAGGAUAUCGAUUGCUUUGCAGUCGAGAAGGGCAUGUUCUAG [JL ENG3 3.80 Mod G] (Eterna round: R96, puzzle: Exclusion NG 3) | 0.0824 | 0.0358 | 0.0736 | – | – | –
